Where “and” joins values, the source holds several entries; their conditions need not be identical. Equal entries are not always repeated.
Legend:
TgCBS [1] = biological target: T1, TgCBS (Toxoplasma gondii, UniProt A0A125YSJ9); assay: lead acetate H2S assay, biphasic fit; assay type: biochemical; settings: substrate inhibition in beta-elimination; L-Cys alone; 50 mM Hepes pH 7.4; 37 °C; PLP 20 µM
T1 construct: gene TGME49_259180; mainly dimer with some tetramer; no heme, PLP at Lys56
T1 sequence (A0A125YSJ9 1-514): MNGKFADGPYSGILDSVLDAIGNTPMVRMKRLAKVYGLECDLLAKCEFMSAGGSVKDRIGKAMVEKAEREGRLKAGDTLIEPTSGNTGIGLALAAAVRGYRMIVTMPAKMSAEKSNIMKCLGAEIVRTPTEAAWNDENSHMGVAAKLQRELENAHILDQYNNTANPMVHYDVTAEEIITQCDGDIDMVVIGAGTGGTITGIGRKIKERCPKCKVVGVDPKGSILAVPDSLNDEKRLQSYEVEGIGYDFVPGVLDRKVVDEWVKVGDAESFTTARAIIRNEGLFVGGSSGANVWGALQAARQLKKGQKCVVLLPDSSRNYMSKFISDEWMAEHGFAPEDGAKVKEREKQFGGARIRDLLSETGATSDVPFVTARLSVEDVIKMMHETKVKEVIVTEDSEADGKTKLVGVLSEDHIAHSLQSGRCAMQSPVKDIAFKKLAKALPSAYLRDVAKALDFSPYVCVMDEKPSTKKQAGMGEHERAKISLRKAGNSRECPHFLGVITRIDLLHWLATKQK
Text: (§1) lead acetate H2S assay, biphasic fit on TgCBS

TgCBS [2] = biological target: T1, TgCBS; assay: CD spectroscopy (aminoacrylate formation); assay type: binding; settings: 3 mM; 20 mM sodium phosphate pH 8.5; 25 °C
TgCBS [3] = biological target: T1, TgCBS; assay: lead acetate H2S assay, substrate competition; assay type: biochemical
Text: lead acetate H2S assay, substrate competition on TgCBS | The IC50 value, i.e. the concentration of L-Ser at which the H2S production

TgCBS [4] = biological target: T1, TgCBS; assay: intrinsic fluorescence titration of apo-enzyme; assay type: binding
[5] = tested on: N[C@@H](CCSC[C@H](N)C(=O)O)C(=O)O; assay: purified protein; settings: CBS coupled-assay conditions (MBP buffer pH 9; 37 °C)
N[C@@H](CO)C(=O)O = assay: purified protein; settings: CBS coupled-assay conditions (MBP buffer pH 9; 37 °C)
TgCBS [6] = biological target: T1, TgCBS; assay: CD spectroscopy (external aldimine formation); assay type: binding; settings: 25 mM; 20 mM sodium phosphate pH 8.5; 25 °C; substrate analog
purified protein [7] = substrate: CC(=O)OC[C@H](N)C(=O)O; assay: purified protein; assay type: biochemical, Toxoplasma gondii; settings: co-substrate L-Hcys, MBP buffer pH 9, 37 °C, PLP 20 µM
purified protein [8] = substrate: N[C@@H](CCS)C(=O)O; assay: purified protein; assay type: biochemical, Toxoplasma gondii; settings: co-substrate L-Ser, MBP buffer pH 9, 37 °C, PLP 20 µM
purified protein [9] = substrate: N[C@@H](CO)C(=O)O; assay: purified protein; assay type: biochemical, Toxoplasma gondii; settings: co-substrate L-Hcys, MBP buffer pH 9, 37 °C, PLP 20 µM
[10] = substrate: N[C@@H](CS)C(=O)O; assay: lead acetate H2S assay, biphasic fit; assay type: biochemical, Toxoplasma gondii; settings: beta-elimination of L-Cys alone, site 1, 50 mM Hepes pH 7.4, 37 °C, PLP 20 µM
Text: as §1

[11] = biological target: the molecule itself; assay: SEC; Superdex 200 10/30 GL, TgCBS at 1 mg/mL, 20 mM sodium phosphate pH 8.5, 150 mM NaCl, 0.1 mM DTT; masses from a calibration curve of standard proteins

N[C@@H](CS)C(=O)O [L-Cys] showed a TgCBS (TgCBS [1]) of 36 ± 4 mM.

With NC(CSCC(N)C(=O)O)C(=O)O (stereo not shown) [lanthionine] the “CD spectroscopy (aminoacrylate formation)” value (TgCBS [2]) was “Binding of lanthionine to the enzyme”.

N[C@@H](CO)C(=O)O [L-Ser] showed an IC50 (TgCBS [3]) of 6.7 ± 1.3 mM.

In the case of Cc1ncc(COP(=O)(O)O)c(C=O)c1O [PLP], the Kd (TgCBS [4]) is reported as 0.00013 ± 1e-05 mM.

“recombinant CBL (Corynebacterium diphtheriae NCTC 13129)” gave a Km [5] of 800 ± 100 µM, a kcat [5] of 93 ± 2 s⁻¹ and a Km (N[C@@H](CO)C(=O)O) of 7500 ± 1400 µM. For the same molecule, the kcat (N[C@@H](CO)C(=O)O) was 1.2 ± 0.2 s⁻¹.

In the case of C[C@H](N)C(=O)O [L-Ala], the “CD spectroscopy (external aldimine formation)” value (TgCBS [6]) is reported as “Addition of the analog L-alanine (L-Ala) to TgCBS resulted in a shift”.

B1: TgCBS (Toxoplasma gondii ME49) (protein)
chain: MNGKFADGPYSGILDSVLDAIGNTPMVRMKRLAKVYGLECDLLAKCEFMSAGGSVKDRIGKAMVEKAEREGRLKAGDTLIEPTSGNTGIGLALAAAVRGYRMIVTMPAKMSAEKSNIMKCLGAEIVRTPTEAAWNDENSHMGVAAKLQRELENAHILDQYNNTANPMVHYDVTAEEIITQCDGDIDMVVIGAGTGGTITGIGRKIKERCPKCKVVGVDPKGSILAVPDSLNDEKRLQSYEVEGIGYDFVPGVLDRKVVDEWVKVGDAESFTTARAIIRNEGLFVGGSSGANVWGALQAARQLKKGQKCVVLLPDSSRNYMSKFISDEWMAEHGFAPEDGAKVKEREKQFGGARIRDLLSETGATSDVPFVTARLSVEDVIKMMHETKVKEVIVTEDSEADGKTKLVGVLSEDHIAHSLQSGRCAMQSPVKDIAFKKLAKALPSAYLRDVAKALDFSPYVCVMDEKPSTKKQAGMGEHERAKISLRKAGNSRECPHFLGVITRIDLLHWLATKQK
notes: mainly dimer with some tetramer; no heme, PLP at Lys56
Work on B1 yielded a Km (purified protein [7]) of 1300 ± 200 µM, a kcat (purified protein [7]) of 5.5 ± 0.1 s⁻¹ and a kcat/Km (purified protein [7]) of 4200 ± 700 M⁻¹ s⁻¹. It also gave a Km (purified protein [8]) of 230 ± 30 µM, a kcat (purified protein [8]) of 6.3 ± 0.4 s⁻¹ and a kcat/Km (purified protein [8]) of 27000 ± 5000 M⁻¹ s⁻¹. It also gave a Km (purified protein [9]) of 420 ± 40 µM, a kcat (purified protein [9]) of 6.3 ± 0.4 s⁻¹ and a kcat/Km (purified protein [9]) of 15000 ± 2000 M⁻¹ s⁻¹. For the same molecule, the Km [10] was 4700 ± 900 µM, the kcat [10] was 2.6 ± 0.3 s⁻¹ and the kcat/Km [10] was 600 ± 200 M⁻¹ s⁻¹.

B2: Cystathionine β-synthase from Toxoplasma gondii (enzyme, Toxoplasma gondii (strain ME49), UniProt A0A125YSJ9 1-514, looked up)
chain: MNGKFADGPYSGILDSVLDAIGNTPMVRMKRLAKVYGLECDLLAKCEFMSAGGSVKDRIGKAMVEKAEREGRLKAGDTLIEPTSGNTGIGLALAAAVRGYRMIVTMPAKMSAEKSNIMKCLGAEIVRTPTEAAWNDENSHMGVAAKLQRELENAHILDQYNNTANPMVHYDVTAEEIITQCDGDIDMVVIGAGTGGTITGIGRKIKERCPKCKVVGVDPKGSILAVPDSLNDEKRLQSYEVEGIGYDFVPGVLDRKVVDEWVKVGDAESFTTARAIIRNEGLFVGGSSGANVWGALQAARQLKKGQKCVVLLPDSSRNYMSKFISDEWMAEHGFAPEDGAKVKEREKQFGGARIRDLLSETGATSDVPFVTARLSVEDVIKMMHETKVKEVIVTEDSEADGKTKLVGVLSEDHIAHSLQSGRCAMQSPVKDIAFKKLAKALPSAYLRDVAKALDFSPYVCVMDEKPSTKKQAGMGEHERAKISLRKAGNSRECPHFLGVITRIDLLHWLATKQK
modifications: PLP bound to active site Lys56 (internal aldimine)
notes: Cystathionine β-synthase, Toxoplasma gondii strain ME49, gene TGME49_259180 (ToxoDB), complete cDNA as a synthetic gene; 514 amino acids (55.8 kDa); Cloned into pET21a (NdeI/BamHI); Mainly a dimer in solution, with some higher-order oligomers (e.g. tetramer); also called TgCBS; T. gondii CBS; source: E. coli Rosetta (DE3), purified (Ni-sepharose)
With B2 the “stoichiometry N” value [11] was 2 and 4.
